Experimental data published in PMC8528861, “Structural and functional analysis of target recognition by the lymphocyte adaptor protein LNK” (Nature Communications, 2021).

Legend:
[1] = target: M. musculus LNK SH2 domain (residues 324–446), wild type (mouse) (UniProt O09039); assay: SPR; competition: biotinylated IL6ST pY757 peptide immobilised on a streptavidin chip; 0.1–0.5 μM WT LNK SH2 domain pre-incubated with phosphopeptide and flowed over; 10 mM HEPES pH 7.4, 150 mM NaCl, 3.4 mM EDTA, 0.005% Tween 20; response normalised to LNK only, IC50 fit
Chain of M. musculus LNK SH2 domain (residues 324–446), wild type (mouse) (O09039 324-446): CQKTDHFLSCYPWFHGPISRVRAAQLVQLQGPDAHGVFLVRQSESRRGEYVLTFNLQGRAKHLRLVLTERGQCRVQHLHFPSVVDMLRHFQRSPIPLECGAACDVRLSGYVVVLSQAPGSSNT

[2] = target: biotinylated JAK2 pY813 peptide; assay: SPR; direct binding: biotinylated JAK2 pY813 immobilised on a streptavidin chip; LNK and SH2B SH2 domains flowed over for 420 s at 30 μL/min; 10 mM HEPES pH 7.4, 150 mM NaCl, 3.4 mM EDA, 0.005% Tween 20

Row | Substance | IC50 [1] [nM] | other results
1 | JAK2 pY813 peptide mutant +5A | 300 | 
2 | JAK2 pY813 peptide mutant +3F | 1430 | 
3 | M. musculus LNK SH2 domain R387H (from UniProt O09039 325-438) (domain or fragment) |  | fold loss in affinity relative to the WT SH2 domain [2]: 10 fold
4 | JAK2 pY813 peptide mutant +1A | 430 | 
5 | JAK2 pY813 peptide mutant −1A | 150 | 
6 | mouse SH2B SH2 domain (from UniProt Q91ZM2 527-625) (domain or fragment) |  | Kd [2]: 100 nM
7 | M. musculus LNK SH2 domain R387C (from UniProt O09039 325-438) (domain or fragment) |  | fold loss in affinity relative to the WT SH2 domain [2]: 3 fold
8 | JAK2 pY813 peptide mutant +4A | 90 | 
